Consider one substance from publication PMC7738311.

For the assay, the target named is His-tagged MafAI (MafAI.1 of N. meningitidis BB-1, from plasmid pEN-mafAI-H) (Neisseria meningitidis strain BB-1). Briefly: semi-native SDS-PAGE with Western blot (heat modifiability); cell envelopes of BB-1, samples heated at 95°C or not before electrophoresis; sample buffer with 0.2% SDS and no β-mercaptoethanol, run on ice; detected with anti-His-tag antibodies (MafAI) or anti-MafAII antiserum.

“His-tagged MafAI (MafAI.1 of N. meningitidis BB-1, from plasmid pEN-mafAI-H) (natural protein)”: the stoichiometry N was 8 subunits.
